Results on one substance are retold here after publication PMC8121815 (Nature Communications, 2021).

Holding throughout (assay): ITC
The target of test [1] is human TOM70 (106-608) H583Q, C-terminal His-tagged (human) (UniProt O94826).
Test [2] addresses hTOM70 mutant H583Q (human).
Test [3] deals with human TOM70 (106-608) D545A, C-terminal His-tagged (human) (UniProt O94826).
Test [4] has as its target human TOM70 (106-608) E477A, C-terminal His-tagged (human) (UniProt O94826).
The target in test [5] is human TOM70 (106-608) E549I, C-terminal His-tagged (human) (UniProt O94826).
The target of test [6] is human TOM70 (106-608) E549A, C-terminal His-tagged (human) (UniProt O94826).

Chain of C-peptide (SARS-CoV-2 orf9b core sequence 44-70) (P0DTD2 44-70 limits assumed): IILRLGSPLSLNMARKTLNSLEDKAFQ

With “C-peptide (SARS-CoV-2 orf9b core sequence 44-70) (from UniProt P0DTD2 44-70)”, the Ka in test [1] came to 1.01e+06 M⁻¹; in test [3], 20100 M⁻¹; in test [4], 3870 M⁻¹; in test [5], 93800 M⁻¹; in test [6] it was 43800 M⁻¹. Also, the stoichiometry N (usually the number of molecules, sites or subunits per partner or assembly) in test [1] amounted to 1.5; in test [3], 1; in test [4], 0; in test [5], 1.7; in test [6], 1.5. Also, the equilibrium dissociation constant (Kd) – broadly, a measure of binding affinity in units of concentration – is 0.99 µM in test [2]; 49.8 µM in test [3]; 258 µM in test [4]; 10.7 µM in test [5]; 22.8 µM in test [6].
